# Data taken from patent US20190048074A1 (Regeneron, published 2019).
# B1: H4H9093P (antibody, V domains shown)
# VH: EVQLVESGGGLVKPGGSLRLSCAASGITFSNAWMSWVRQAPGKGLEWVGRFKGKADGGTVDYAAPVKGRFTISRDDSKNTLYLQMNSLKNEDTAVYYCTTGRITMVRGVLGYWGQGTLVTVSS
# VL: not shown
# Experiments:
# [1] = target: T1, full-length human APLNR (human, UniProt P35414 1-380); test: cell-based or functional assay
# T1 sequence: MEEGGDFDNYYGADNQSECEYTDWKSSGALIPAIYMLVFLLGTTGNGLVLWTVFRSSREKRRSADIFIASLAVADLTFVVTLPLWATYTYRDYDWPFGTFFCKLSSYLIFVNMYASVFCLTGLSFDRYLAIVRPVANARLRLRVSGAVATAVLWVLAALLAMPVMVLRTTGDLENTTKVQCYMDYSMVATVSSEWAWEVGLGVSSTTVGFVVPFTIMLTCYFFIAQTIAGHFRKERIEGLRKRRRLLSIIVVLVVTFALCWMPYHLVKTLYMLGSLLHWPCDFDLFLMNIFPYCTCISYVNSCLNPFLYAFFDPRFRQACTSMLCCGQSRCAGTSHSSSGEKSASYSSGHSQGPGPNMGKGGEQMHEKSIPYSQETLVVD
# [2] = target: T2, human Apelin receptor (hAPLNR) in PathHunter eXpress AGTRL1 CHO-K1 β-Arrestin cells (human, UniProt P35414 1-380); test: cell-based or functional assay
# T2 sequence: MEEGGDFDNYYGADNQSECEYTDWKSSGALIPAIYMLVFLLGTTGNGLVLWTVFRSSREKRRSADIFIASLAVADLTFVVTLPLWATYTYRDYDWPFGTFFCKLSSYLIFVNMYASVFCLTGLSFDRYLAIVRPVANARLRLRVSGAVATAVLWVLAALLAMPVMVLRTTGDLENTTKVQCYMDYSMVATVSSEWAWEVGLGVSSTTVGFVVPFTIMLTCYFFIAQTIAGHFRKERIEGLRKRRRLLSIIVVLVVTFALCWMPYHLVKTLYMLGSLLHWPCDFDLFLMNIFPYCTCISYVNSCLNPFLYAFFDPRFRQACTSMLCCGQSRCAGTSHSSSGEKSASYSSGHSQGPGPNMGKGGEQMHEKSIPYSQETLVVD
binder,measurement,setting,value
B1,"% Inhibition at 100 nM mAb, in the presence of 100 ρM Apelin (at 7.5 µM Forskolin)",[1],3%
same,% Activation at 500 nM antibody or Apelin-antibody fusion,[2],2%
